Results as given in article PMC5897841, “Development of a multipurpose scaffold for the display of peptide loops” (Protein Engineering, Design and Selection, 2017).

How the values were obtained:
CK2α kinase [1] = biological target: T1, CK2α kinase (Homo sapiens, UniProt P68400); experiment: Sedimentation velocity AUC, CK2α / RAD-CK2β; type: binding; conditions: 20°C, 20 mM HEPES pH 7.5, 500 mM NaCl
T1 construct: made in house; host or cells: E. coli BL21(DE3) with pUBS520; pBAT4 plasmid
T1 sequence (P68400 2-329): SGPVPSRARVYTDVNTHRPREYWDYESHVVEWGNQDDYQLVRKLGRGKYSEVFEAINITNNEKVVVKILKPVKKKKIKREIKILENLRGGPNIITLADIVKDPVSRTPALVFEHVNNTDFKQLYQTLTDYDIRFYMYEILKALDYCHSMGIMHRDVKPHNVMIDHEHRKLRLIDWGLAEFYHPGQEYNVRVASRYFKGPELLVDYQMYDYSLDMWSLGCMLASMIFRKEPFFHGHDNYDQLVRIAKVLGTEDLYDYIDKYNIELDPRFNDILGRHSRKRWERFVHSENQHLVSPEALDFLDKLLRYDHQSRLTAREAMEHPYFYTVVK

CK2α kinase [2] = biological target: T1, CK2α kinase; experiment: Analytical SEC, CK2α / RAD-CK2β; type: binding; conditions: Superdex 75 5/150, 20 mM HEPES pH 7.5, 500 mM NaCl, calibrated
Procedure: Purified protein samples, either as individual proteins or equimolar mixtures, were separated by analytical SEC over an Superdex 75 5/150 size exclusion column (GE Healthcare) equilibrated with 20 mM HEPES pH 7.5, 500 mM NaCl. Fractions from the peaks from each run were analyzed by SDS-PAGE with purified proteins as standards. The column was calibrated using molecular weight standards (blue dextran, bovine serum albumin, carbonic anhydrase, cytochrome C and aprotonin, Sigma-Aldrich cat. MWGF70) and the calibration curve used to estimate the molecular weights of the three samples (Fig. S5).
Figure S5. MW estimation of CK2α, RAD-CK2β(186-200) and their complexes by SEC Calibration Superdex 75 5/150 HR column
Figure S5. Molecular weight protein standards (Sigma -Aldrich, cat. no. MWGF70, gray diamonds in the plot) were used to calibrate Superdex 75 5/150 column. Blue dextran was used to define the void volume (1.24 ml)and total volume was assumed to be […]. Elution positions of CK2α,(blue […]
main article, were used to estimate the molecular weights of the proteins from the calibration curve. […]

B1: CK2α kinase: Human CK2α kinase (residues 2-329) (protein)
chain: T1 sequence (P68400 2-329)
- Sedimentation coefficient (s-value) (CK2α kinase [1]; SV AUC, 50 000 rpm, 280 nm, CK2α 6 μM, RAD-CK2β 14.3 μM, complex 5 μM each): 3.0 S
- Molar mass from SV AUC (CK2α kinase [1]; boundary spreading): 41.5 kDa
- Molecular weight equivalent of SEC elution volume (CK2α kinase [2]): 45.7 kDa
